The target of assay [1] is T1, anthrax lethal factor (LF) (Bacillus anthracis, UniProt P15917 34-809).
T1 sequence: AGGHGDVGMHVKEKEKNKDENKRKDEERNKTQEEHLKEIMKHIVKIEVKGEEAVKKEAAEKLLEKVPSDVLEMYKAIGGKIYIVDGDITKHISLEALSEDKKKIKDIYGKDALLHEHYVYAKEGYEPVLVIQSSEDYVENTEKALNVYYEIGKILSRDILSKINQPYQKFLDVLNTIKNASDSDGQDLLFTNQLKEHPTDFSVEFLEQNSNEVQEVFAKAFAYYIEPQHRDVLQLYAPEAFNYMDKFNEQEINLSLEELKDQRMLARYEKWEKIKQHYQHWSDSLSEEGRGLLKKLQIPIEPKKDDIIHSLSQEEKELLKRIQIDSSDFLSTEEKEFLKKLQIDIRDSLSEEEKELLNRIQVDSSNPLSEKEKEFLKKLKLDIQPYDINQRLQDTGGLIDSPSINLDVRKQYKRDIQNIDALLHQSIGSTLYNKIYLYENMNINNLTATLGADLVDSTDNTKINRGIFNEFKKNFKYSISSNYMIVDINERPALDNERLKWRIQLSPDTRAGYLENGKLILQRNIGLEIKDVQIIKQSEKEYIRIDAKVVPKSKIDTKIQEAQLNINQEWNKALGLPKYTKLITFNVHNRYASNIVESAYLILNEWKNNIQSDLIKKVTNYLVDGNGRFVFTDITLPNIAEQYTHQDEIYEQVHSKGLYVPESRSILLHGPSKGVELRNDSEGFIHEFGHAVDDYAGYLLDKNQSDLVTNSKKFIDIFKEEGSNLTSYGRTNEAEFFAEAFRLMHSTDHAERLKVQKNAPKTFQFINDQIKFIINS
Description: cell-based or functional assay.

A further assay concerns the target T2, bovine serum albumin (bovine, UniProt P02769 25-607).
T2 construct: also called BSA
Description: ELISA, protein coated at 10 ug/ml. For orientation: An ELISA detects its analyte on a solid surface through an enzyme-linked reagent.

The target of the next assay is lysozyme (Gallus gallus (Chicken), UniProt P00698 19-147). Briefly: ELISA, protein coated at 10 ug/ml.
lysozyme, sequence (P00698 19-147 limits assumed): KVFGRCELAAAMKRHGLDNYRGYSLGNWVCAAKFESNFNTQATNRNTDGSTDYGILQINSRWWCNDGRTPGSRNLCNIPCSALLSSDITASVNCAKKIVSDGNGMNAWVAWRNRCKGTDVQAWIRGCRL
Assay [2] addresses anthrax protective antigen (PA), purified (Bacillus anthracis, UniProt P13423 30-764). Briefly: Western blot of purified toxin proteins; PA as negative control. Background: A western blot detects proteins with antibodies after separation by electrophoresis.
The target in assay [3] is T3, anthrax edema factor (EF) (Bacillus anthracis, UniProt P40136 34-800).
T3 sequence: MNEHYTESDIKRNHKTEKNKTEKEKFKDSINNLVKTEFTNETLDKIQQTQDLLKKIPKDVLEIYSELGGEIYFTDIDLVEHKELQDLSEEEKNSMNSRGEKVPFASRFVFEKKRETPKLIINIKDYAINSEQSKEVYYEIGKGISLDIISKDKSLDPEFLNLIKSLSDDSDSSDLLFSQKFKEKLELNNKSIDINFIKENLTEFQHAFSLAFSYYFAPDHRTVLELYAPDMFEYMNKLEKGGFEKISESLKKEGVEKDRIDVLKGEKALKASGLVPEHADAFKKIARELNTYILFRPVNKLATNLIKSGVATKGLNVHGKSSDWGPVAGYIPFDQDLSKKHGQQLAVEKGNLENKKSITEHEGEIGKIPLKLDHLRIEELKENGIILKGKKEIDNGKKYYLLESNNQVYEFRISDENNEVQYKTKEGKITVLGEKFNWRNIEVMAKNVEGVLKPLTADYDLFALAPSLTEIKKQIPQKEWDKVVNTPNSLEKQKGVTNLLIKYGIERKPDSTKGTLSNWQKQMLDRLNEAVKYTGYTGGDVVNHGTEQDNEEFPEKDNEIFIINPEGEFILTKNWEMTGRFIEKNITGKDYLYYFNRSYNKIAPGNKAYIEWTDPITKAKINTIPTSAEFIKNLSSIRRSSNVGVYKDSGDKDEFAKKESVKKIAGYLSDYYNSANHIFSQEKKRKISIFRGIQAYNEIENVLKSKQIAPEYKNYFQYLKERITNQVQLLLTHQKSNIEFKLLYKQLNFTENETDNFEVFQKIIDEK
Briefly: Western blot of purified toxin proteins (SDS-PAGE) probed with the mAb.

Assay [4] addresses T1, anthrax lethal factor (LF). Briefly: SPR (BIAcore 3000), LF immobilized on CM3 chip, Fab injected. A general note: Surface plasmon resonance follows binding to a sensor surface in real time, without labels.
The target of assay [5] is T3, anthrax edema factor (EF).
In assay [6] the target is T3, anthrax edema factor (EF). Briefly: Western blot of purified toxin proteins (SDS-PAGE) probed with the mAb. This is another data set of the same source.
For assay [7], the target named is T3, anthrax edema factor (EF). Description: cell-based or functional assay.
The target in assay [8] is T3, anthrax edema factor (EF). Description: SPR (BIAcore), IgG immobilized on CM5 chip, recombinant EF injected, 1:1 model.
The target of assay [9] is T3, anthrax edema factor (EF). Description: ELISA, EF coated at 5 ug/ml.
Assay [10] deals with T1, anthrax lethal factor (LF). Description: ELISA, LF coated at 5 ug/ml.

The results in this text go back to patent US20100119520A1 (US Dept. of Health and Human Services, published 2010).

T2 sequence (P02769 25-607 limits assumed): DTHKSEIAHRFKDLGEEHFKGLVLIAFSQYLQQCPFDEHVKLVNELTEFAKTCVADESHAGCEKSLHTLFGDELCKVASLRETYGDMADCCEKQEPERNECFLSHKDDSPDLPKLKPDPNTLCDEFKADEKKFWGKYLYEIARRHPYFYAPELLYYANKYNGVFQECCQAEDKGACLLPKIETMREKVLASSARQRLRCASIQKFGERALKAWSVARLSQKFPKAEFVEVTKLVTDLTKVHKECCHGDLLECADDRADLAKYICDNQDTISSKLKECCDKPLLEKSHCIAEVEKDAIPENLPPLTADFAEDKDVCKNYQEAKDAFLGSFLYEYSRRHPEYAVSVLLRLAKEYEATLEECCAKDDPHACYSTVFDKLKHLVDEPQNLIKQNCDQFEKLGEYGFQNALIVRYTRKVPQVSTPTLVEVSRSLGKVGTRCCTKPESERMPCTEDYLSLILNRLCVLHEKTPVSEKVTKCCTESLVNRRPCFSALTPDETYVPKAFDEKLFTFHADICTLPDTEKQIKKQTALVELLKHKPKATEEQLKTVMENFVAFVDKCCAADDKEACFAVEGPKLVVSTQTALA
anthrax protective antigen (PA), purified, sequence (P13423 30-764 limits assumed): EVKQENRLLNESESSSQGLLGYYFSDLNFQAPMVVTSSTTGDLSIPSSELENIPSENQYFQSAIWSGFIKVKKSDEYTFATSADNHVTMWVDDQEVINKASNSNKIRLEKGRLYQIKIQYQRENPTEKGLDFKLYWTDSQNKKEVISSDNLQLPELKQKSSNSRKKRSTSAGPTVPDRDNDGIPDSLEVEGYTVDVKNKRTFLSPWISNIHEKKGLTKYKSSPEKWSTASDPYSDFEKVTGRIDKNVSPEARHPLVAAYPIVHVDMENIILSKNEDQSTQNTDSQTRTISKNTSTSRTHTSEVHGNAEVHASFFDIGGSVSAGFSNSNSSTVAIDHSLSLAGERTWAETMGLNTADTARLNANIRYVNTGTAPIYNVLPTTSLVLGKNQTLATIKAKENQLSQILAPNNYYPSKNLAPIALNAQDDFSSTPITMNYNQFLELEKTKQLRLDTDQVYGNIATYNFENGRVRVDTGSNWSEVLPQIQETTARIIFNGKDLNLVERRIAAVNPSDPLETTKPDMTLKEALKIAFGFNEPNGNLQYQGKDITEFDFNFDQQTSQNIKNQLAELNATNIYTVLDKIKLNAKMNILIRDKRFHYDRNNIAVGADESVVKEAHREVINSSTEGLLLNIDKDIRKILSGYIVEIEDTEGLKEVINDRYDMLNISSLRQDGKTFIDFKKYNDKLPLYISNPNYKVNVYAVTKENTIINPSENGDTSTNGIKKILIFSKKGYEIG

B1: anti-anthrax LF11H monoclonal antibody (IgG) (antibody, V domains shown)
VH: VQLLEQSGAEVKKPGESLKISCKGSGYSFTNYWIGWVRQMPGKGLEWMGIIYPDDSDTRYSPSFQGQVTISFDKSINTAYLQWSSLKASDTAIYYCARALWFRDWGKMDVWGKGTTVTVS
VL: ELQMTQSPSSLSASVGDRVTITCRASQGIRNDLGWYQQKPGKAPKLLIYAASSLQSGVPSRFSGSGSGTDFTLTISSLQPEDFATYYCLQDYTYPWTFGQGTKLEIKR
Turning to B1, the “EC50 of neutralization of LT toxicity, RAW264.7 macrophage viability (MTT)” value in assay [1] came out at 62.6 mg/L. Also, the binding result (in the assay with bovine serum albumin; with lysozyme; in [2]; in assay [3]) was “no binding” throughout.

B2: anti-anthrax LF11H Fab (Fab, V domains shown)
VH: B1 VH
VL: B1 VL
B2: in assay [4], the Kd (in general, the free concentration of one partner at which half of the binding sites on the other are occupied at equilibrium, for simple one-to-one binding) was 7.4 nM; the koff (as a rule, the rate constant with which the complex falls apart) was 0.001 s⁻¹; the association rate constant (kon) (in general, a measure of how fast the partners come together) amounted to 130000 M⁻¹ s⁻¹.

B3: anti-EF clone EF14H (antibody, V domains shown)
VH: VQLLEESGGGLVKPGGSLRLSCAASGFTFSNYSMNWVRQAPGKGLEWVGFIRTKAKGGTTEYAASVKGRFTISRDDSKSIAYLQMNSLKTEDTAVYYCTPAGIIIRLVTPIYYYYMDVWGKGTTVTVS
VL: AAELTQSPSSLSASVGDRVTITCRASQGIRNYLAWYQQKPGKVPKLLIYAASTLQSGVPSRFSGSGSGTDFTLTISSLQPEDVATYYCQKYSSAPFTFGPGTKVGIKR
For the molecule B3, in [5], the EC50 (read off the curve) (commonly the concentration at which the effect is half-maximal) was approximately 0.05 mg/L. For the same molecule, the binding result in the assay with bovine serum albumin and with lysozyme was “no binding” throughout.

B4: anti-anthrax LF10E monoclonal antibody (IgG) (antibody, V domains shown)
VH: EVQLLESGGGLVKPGGSLRLTCAASGFTFSSYAMHWVRQAPEKGLEWVSSISGSGGGTWYADSVKGRFTISRDNSRNTLYLQLNSLRAEDTAVYYCARPKYTGYENPFDYWGQGTLVTVS
VL: ELQMTQSPSSLSASVGDRVTITCRASQDIRNYLAWYQQEPGKAPRLLIYYASKLQSGVPSRFSGRGSGTDYSLTISSLQPEDFATYYCQQYDSVPLTFGGGTKMEIKR
Take B4: in [1], the “EC50 of neutralization of LT toxicity, RAW264.7 macrophage viability (MTT)” value was found to be 0.0156 mg/L. Moreover, the binding result (with bovine serum albumin; with lysozyme; in assay [2]; in [6]) was “no binding” throughout.

B5: anti-anthrax LF10E Fab (Fab, V domains shown)
VH: B4 VH
VL: B4 VL
As to B5, in assay [4], the Kd was found to be 0.69 nM, the dissociation rate constant (koff) turned out to be 0.00019 s⁻¹ and the kon was found to be 270000 M⁻¹ s⁻¹.

B6: anti-anthrax EF13D monoclonal antibody (IgG) (antibody, V domains shown)
VH: EVQLLESGAEVKKPGSSVKVSCKVSGGTFSSFGISWVRQAPGQGLEWMGLIIPILGTANYAQKFQGRLTITADESTSTVYMELSSLRSEDTAVYYCATDPYHNWGEWDLDYWGQGTLVTVS
VL: AAELTQSPSSLSASVGDRVSITCRASQSISNYLSWYQQKPGKAPQLLIYDASTLQSGVPSRFSGSGSGTDFTLTISSLQPEDFATYYCQCGYGTYPTFGGGTQVEIKR
Take B6: in assay [7], the “EC50 of inhibition of ET-mediated cAMP production in RAW264.7 cells” value was 0.028 mg/L. Further, in the assay with bovine serum albumin, the binding result is “no binding”. Moreover, in the assay with lysozyme, the binding result is on record as “no binding”. Further, in assay [8], the Kd was 9.7 nM, the off-rate constant (koff) is 0.0004 s⁻¹ and the on-rate constant (kon) is 41200 M⁻¹ s⁻¹.

B7: anti-EF clone EF15A (antibody, V domains shown)
VH: VQLLEESGGGVVQPGRSLRLSCTASGFTFSNYGMQWVRQAPGKRLEWVAFISYSGSNKQYADSVRGRFTISRDNSKNILYLQMNSLRSEDTAVYYCARDSHYLDYLPDAFDYWGQGTVVTVS
VL: ELVMTQSPSLLSASVGDRVTITCRASQGISNYLAWFQQKPGKAPKRLIFTAYRLESGVPSRFSGSMSGTEFTLTISSLEPEDFATYYCLQHSAYPPTFGQGTKLEIKR
For the molecule B7, the binding result in [9] is recorded as “binds”; with bovine serum albumin it was “no binding”; in the assay with lysozyme it was “no binding”.

B8: anti-LF clone LF9D (antibody, V domains shown)
VH: EVQLLESGGGLVKPGGSLRLSCAASGFTFSSYAMHWVRQTPEKGLEWVSTISSIGGSTWYSDSVKGRFTISRDNSKNTLFLHMKSLRAEDTAVYYCARDFFSQVGWSTPNNWFDPWGQGTLVTVS
VL: AAELTQSPSTLSASVGDRVTITCRASQGIATYLNWYQQIPGKAPKLLIYAASTLESGVPSRFSGSGSGAEFTLTISSLQPGDFATYYCQQFYSMPLTFGGGTKVEIKR
In the case of B8, the binding result is reported as “binds” in assay [10], “no binding” with bovine serum albumin and “no binding” with lysozyme.
